Measured values taken from patent US12091453B2, “Epitope specific to SMO protein, antibody recognizing same, and composition comprising same” (HEDGEHOG, INC., priority 2018, dated 2024).
“Also recorded” adds a separate entry of the source.

Assays:
Format in all cases: cell-based
[1] = system: SHH-induced GLI transcriptional activity; assay: NIH3T3-GLI reporter assay, humanized SMO antibodies; conditions: NIH3T3-GLI cells, Sonic hedgehog peptide 15 h, 10 and 20 μg/ml antibody 6 h
Protocol: GLI Repoter-NIH3T3 cell line was purchased from BPS Bioscience (CA, USA).
After NIH3T3-GLI cells having GLI transcriptional activity were plated in a 96-well plate at a density of 1×10^4 cells/cm^2, 2% BCS was treated with Sonic hedgehog peptide. Following 15 h, the cells were treated with different concentrations (10 and 20 μg/ml) of each of humanized antibody Nos. 5 (Production Example 6), 7 (Production Example 7), 15 (Production Example 8), 16 (Production Example 9), and 17 (Production Example 10) for 6 h. GLI1 Reporter activity (%) was measured through luminescence using a Reporter assay kit (Promega, WI, USA). The above procedure was repeated except that the SMO small-molecule inhibitor vismodegib or erismodegib was used as a positive control instead of the inventive SMO antibody.

[2] = system: GLI1; assay: Western blotting of HCT116 cell line treated with humanized SMO antibodies; conditions: HCT116, 10 and 20 μg/ml, serum free media
Protocol: (§1) HCT116 cell line was purchased from the Korean Cell Line Bank. 24 h after cells were plated in a […] at a density of 5×10^5 cells/cm^2, they were treated with different concentrations (10 and 20 μg/ml) of each of humanized SMO antibody Nos. 5, 7, 15, 16, and 17 in serum free media.
(§2) Cells were disrupted by a combination of mechanical homogenization and sonication in a lysis buffer (7 M urea, 2 M thiourea, 4% CHAPS, 40 mM Tris, 100 mM DTT) supplemented with protease, followed by centrifugation at 15,000 rpm and 4° C. for 20 min. Proteins in the supernatant were quantified with NanoDrop by bicinchoninic acid (BCA) assay.
(§3) 30 μg of the proteins isolated from the collected tissues were subjected to electrophoresis, transferred to a PVDF membrane, labeled with anti-GLI1 antibody (cell signaling, MA, USA), anti-SMO antibody (Santa Cruz, CA, USA), and anti β-actin antibody as primary antibodies and an HRP-conjugated anti-rabbit antibody as a secondary antibody, and detected by chemiluminescence staining. The expression levels of SMO protein were measured by the enhanced chemiluminescence (ECL) method.

[3] = system: SMO; assay: as above; conditions: HCT116, 10 and 20 μg/ml, serum free media
Protocol: as §1, §2, §3

[4] = system: HCT116 cell line; assay: Transwell migration assay; conditions: HCT116, 10 μg/ml, 48 h
Protocol: After HCT116 cell line was plated in a transwell, each of humanized SMO antibody Nos. 7, 15, 16, and 17 was added at a concentration of 10 μg/ml. Following 48 h, cell motility was measured using a Diff-Quik kit.

| Molecule | transcriptional activity of GLI (GLI1 Reporter activity) [1] | expression level of GLI1 protein [2] | expression level of SMO protein [3] | cell motility [4] | cell motility compared to treatment with vismodegib or erismodegib (positive control) [4] |
| --- | --- | --- | --- | --- | --- |
| humanized SMO antibody No. 7: humanized SMO antibody, VH SEQ ID NO: 23 and VL SEQ ID NO: 28 (antibody, V domains shown, huSM01-21-07 VH; huSM01-21-07 VL) VH: QVQLVQSGAEVKKPGASVKVSCKASGYTFTEYTMHWVRQAPGQRLEWMGGINPNTGDTRYNQKFKGRVTITVDKSASTAYMELSSLRSEDTAVYYCARDYYGSPFVYWGQGTLVTVSS VL: DIVMTQSPLSLPVTPGEPASISCRSSQSIVHSSGYTFLDWYLQKPGQSPQLLIYKVSNRFSGVPDRFSGSGSGTDFTLKISRVEAEDVGVYYCFQGSHVPLTFGGGTKVEIK | significantly inhibited the transcriptional activity of GLI; also recorded: effectively inhibit the SHH-induced GLI transcriptional activity | reduce the expression levels | reduce the expression levels | reduction in cell motility | – |
| humanized SMO antibody No. 17: humanized SMO antibody, VH SEQ ID NO: 26 and VL SEQ ID NO: 29 (antibody, V domains shown, huSM01-21-17 VH; huSM01-21-15 VL) VH: EVQLVQSGAEVKKPGATVKISCKVSGYTFTEYTMHWVQQAPGKGLEWMGGINPNTGDTRYNQKFKGRVTITVDKSTDTAYMELSSLRSEDTAVYYCARDYYGSPFVYWGQGTLVTVSS VL: DIQMTQSPSSLSASVGDRVTITCRSSQSIVHSSGYTFLDWYQQKPGKAPKLLIYKVSNRFSGVPSRFSGSGSGTDFTLTISSLQPEDFATYYCFQGSHVPLTFGQGTKVEIK | significantly inhibited the transcriptional activity of GLI; also recorded: effectively inhibit the SHH-induced GLI transcriptional activity | reduce the expression levels | reduce the expression levels | reduction in cell motility; also recorded: highest activities to reduce cell mobility | significantly inhibited cell motility |
| humanized SMO antibody No. 16: humanized SMO antibody, VH SEQ ID NO: 25 and VL SEQ ID NO: 29 (antibody, V domains shown, huSM01-21-16 VH; huSM01-21-15 VL) VH: QVQLVQSGAEVKKPGASVKVSCKASGYTFTEYTMHWVRQAPGQGLEWMGGINPNTGDTRYNQKFKGRVTMTVDKSTSTVYMELSSLRSEDTAVYYCARDYYGSPFVYWGQGTLVTVSS VL: DIQMTQSPSSLSASVGDRVTITCRSSQSIVHSSGYTFLDWYQQKPGKAPKLLIYKVSNRFSGVPSRFSGSGSGTDFTLTISSLQPEDFATYYCFQGSHVPLTFGQGTKVEIK | significantly inhibited the transcriptional activity of GLI; also recorded: effectively inhibit the SHH-induced GLI transcriptional activity | reduce the expression levels | reduce the expression levels | reduction in cell motility; also recorded: highest activities to reduce cell mobility | significantly inhibited cell motility |
| humanized SMO antibody No. 15: humanized SMO antibody, VH SEQ ID NO: 24 and VL SEQ ID NO: 29 (antibody, V domains shown, huSM01-21-15 VH; huSM01-21-15 VL) VH: QVQLVQSGAEVKKPGASVKVSCKASGYTFTEYTMHWVRQAPGQRLEWMGGINPNTGDTRYNQKFKGRVTITVDKSASTAYMELSSLRSEDTAVYYCARDYYGSPFVYWGQGTLVTVSS VL: DIQMTQSPSSLSASVGDRVTITCRSSQSIVHSSGYTFLDWYQQKPGKAPKLLIYKVSNRFSGVPSRFSGSGSGTDFTLTISSLQPEDFATYYCFQGSHVPLTFGQGTKVEIK | significantly inhibited the transcriptional activity of GLI; also recorded: effectively inhibit the SHH-induced GLI transcriptional activity | reduce the expression levels | reduce the expression levels | reduction in cell motility | – |
